The target of this experiment is MBP-parkin (UniProt O60260 1-465). The experiment can be described thus: fluorescence polarisation. In general terms: In fluorescence polarisation assays a small probe gives low polarisation when free and higher when bound to something large.
Chain of MBP-parkin (O60260 whole entry): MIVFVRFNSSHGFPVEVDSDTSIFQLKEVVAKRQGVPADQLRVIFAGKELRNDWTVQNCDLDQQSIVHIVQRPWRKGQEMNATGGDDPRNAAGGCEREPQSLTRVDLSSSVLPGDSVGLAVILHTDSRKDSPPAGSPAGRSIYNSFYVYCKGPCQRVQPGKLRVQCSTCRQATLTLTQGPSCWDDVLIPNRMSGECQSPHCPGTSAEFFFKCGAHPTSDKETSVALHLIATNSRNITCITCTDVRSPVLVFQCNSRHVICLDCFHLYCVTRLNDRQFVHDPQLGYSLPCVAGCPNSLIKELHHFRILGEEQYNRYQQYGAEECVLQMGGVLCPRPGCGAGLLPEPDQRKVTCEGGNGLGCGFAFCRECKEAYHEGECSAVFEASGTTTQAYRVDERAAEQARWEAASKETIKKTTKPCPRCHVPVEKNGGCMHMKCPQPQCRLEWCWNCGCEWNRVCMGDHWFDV

B1: CL-arrestin-3-F88C, bimane-labeled (natural protein, UniProt P32120-2 1-409, looked up)
chain: MGEKPGTRVFKKSSPNSKLTVYLGKRDFVDHLDKVDPVDGVVLVDPDYLKDRKVFVTLTVAFRYGREDLDVLGLSFRKDLFIANYQACPPTPNPPRPPTRLQERLLRKLGQHAHPFFFTIPQNLPSSVTLQPGPEDTGKALGVDFEIRAFVAKSLEEKSHKRNSVRLVIRKVQFAPEKPGPQPSAETTRHFLMSDRSLHLEASLDKELYYHGEPLNVNVHVTNNSTKTVKKIKVSVRQYADIVLFSTAQYKVPVAQVEQDDQVSPSSTFSKVYTITPLLSNNREKRGLALDGKLKHEDTNLASSTIVKEGANKEVLGILVSYRVKVKLVVSRGGDVSVELPFVLMHPKPHDHIALPRPQSAAPETDAPVDTNLIEFETNYATDDDIVFEDFARLRLKGLKDEDYDDQFS
modifications: monobromobimane label on the unique cysteine (F88C)
On to B1, for which the dissociation constant Kd was found to be 3.36 µM.

B2: CL-arrestin-1-F79C, bimane-labeled (natural protein)
chain: MKANKPAPNHVIFKKISRDKSVTIYLGKRDYIDHVERVEPVDGVVLVDPELVKGKRVYVSLTAAFRYGQEDIDVMGLSCRRDLYFSQVQVFPPVGASGATTRLQESLIKKLGANTYPFLLTFPDYLPSSVMLQPAPQDVGKSAGVDFEIKAFATHSTDVEEDKIPKKSSVRLLIRKVQHAPRDMGPQPRAEASWQFFMSDKPLRLAVSLSKEIYYHGEPIPVTVAVTNSTEKTVKKIKVLVEQVTNVVLYSSDYYIKTVAAEEAQEKVPPNSSLTKTLTLVPLLANNRERRGIALDGKIKHEDTNLASSTIIKEGIDKTVMGILVSYQIKVKLTVSGLLGELTSSEVATEVPFRLMHPQPEDPDTAKESFQDENFVFEEFARQNLKDAGEYKEEKTDQEAAMDE
modifications: monobromobimane label on the unique cysteine (F79C)
B2 gave a Kd of 15.5 µM. Compared with the last molecule, the Kd is about 4.6-fold higher.

What is called Kd is a measure of binding affinity in units of concentration. Read a high Kd as a looser complex.

(Values after publication PMC3091828 (Biochemistry, 2011).)
